Source: the supplement of paper PMC10567573

B1: KIAA0774 (parent)
chain: FEDEVKRLGWQQQAELQELEERLQ

Variants of: B1
Experiment: protein stability index of a GFP-peptide fusion (GPS, HEK-293T) (PSI 1-6); higher = more stable
Conditions: c terminus: a fixed tail appended
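Note: lentivirally expressed fusions sorted by FACS into six bins by GFP to DsRed ratio, PSI derived from sequencing read proportions per bin multiplied by bin number.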

Protein stability index: each site, then its substitutions
F1: G 3.56 | H 4.02 | I 3.86 | K 2.96 | L 4.06 | M 3.68 | N 4.32 | P 4.12 | Q 4.05 | R 3.41 | S 2.67 | T 2.85 | V 3.66 | W 3.93 | Y 3.38
E2: A 2.71 | C 2.71 | D 3.79 | F 3.25 | G 3.14 | H 2.16 | I 3.12 | K 2.27 | L 3.05 | M 2.77 | N 2.5 | P 3.16 | Q 2.93 | R 4.41 | S 2.32 | T 2.77 | V 2.21 | W 3.33 | Y 3.56
D3: A 3.33 | C 2.3 | E 3.86 | F 2.72 | G 3.23 | H 2.99 | I 1.66 | K 2.03 | L 2.95 | M 2.59 | N 2.75 | P 3.42 | Q 3.29 | R 2.35 | S 2.58 | T 2.69 | V 2.76 | W 3.19 | Y 2.85
E4: A 2.75 | C 2.93 | D 4.14 | F 3.38 | G 3.21 | H 3.59 | I 3.19 | K 2.97 | L 2.47 | M 3.12 | N 3.49 | P 3.56 | Q 3.26 | R 3.32 | S 2.83 | T 3.2 | V 3.33 | W 2.81 | Y 3.64
V5: A 3.86 | C 3.6 | D 4.37 | E 4.44 | F 2.77 | G 3.99 | H 4.15 | I 3.87 | K 2.54 | L 3.4 | M 4.19 | N 4.08 | P 4.01 | Q 4.13 | R 2.75 | S 3.47 | T 3.5 | W 3.5 | Y 4.24
K6: A 4.54 | C 3.87 | D 3.75 | E 4.67 | F 4.38 | G 4.5 | H 4.14 | I 3.39 | L 4.12 | M 4.17 | N 4.16 | P 4.48 | Q 4.07 | R 4.03 | S 4.47 | T 4.31 | V 4.52 | W 3.89 | Y 4.4
R7: A 4.65 | C 4.61 | D 4.89 | E 4.53 | F 4.32 | G 4.9 | H 4.04 | I 3.67 | K 3.32 | L 3.68 | M 4.41 | N 4.12 | P 4.19 | Q 4.79 | S 4.65 | T 4.45 | V 3.9 | W 4.03 | Y 4.21
L8: A 3.66 | D 4.77 | E 4.52 | F 3.98 | G 3.42 | H 3.79 | I 3.86 | K 3.57 | M 2.83 | N 3.48 | P 4.45 | Q 4.48 | R 4.05 | S 3.88 | T 3.93 | V 4.25 | W 3.4 | Y 3.72
G9: A 3.83 | C 3.36 | D 3.9 | E 4.63 | F 3.96 | H 4.11 | I 3.73 | K 3.23 | L 3.15 | M 3.13 | N 2.62 | P 4.17 | Q 3.83 | R 3.75 | S 1.91 | T 2.04 | V 4.02 | W 3.54 | Y 4.13
W10: A 5.49 | C 4.97 | D 5.8 | E 5.57 | F 4.41 | G 5.07 | H 5.09 | I 4.66 | K 5.13 | L 5.35 | M 5.65 | N 5.54 | P 5.11 | Q 5.71 | R 5.5 | S 4.84 | T 5.13 | V 4.69 | Y 4.86
Q11: A 3.64 | C 3.86 | D 5.16 | E 4.83 | F 3.73 | G 4.84 | H 5.08 | I 3.88 | K 4.41 | L 4.46 | M 3.79 | N 4.52 | P 4.57 | R 4.44 | S 4.4 | T 3.3 | V 1.72 | W 4.16 | Y 4.76
Q12: A 3.83 | C 2.14 | D 4.85 | E 4.09 | F 2.78 | G 4.14 | H 3.1 | I 2.45 | K 4.03 | L 2.85 | M 3.13 | N 4.8 | P 5.22 | R 3 | S 5.12 | T 3.45 | V 2.83 | W 2.9 | Y 2.31
Q13: A 4.31 | C 4.83 | D 4.76 | E 5.03 | F 4.42 | G 5.35 | H 4.39 | I 3.44 | K 3.77 | L 3.5 | M 2.6 | N 5.2 | P 5.11 | R 2.99 | S 5.01 | T 3.74 | V 3.86 | W 3.67 | Y 3.58
A14: C 3 | D 5.2 | E 5.64 | F 2.63 | G 5.26 | H 4.27 | I 1.73 | K 5.32 | L 1.85 | M 4.37 | N 4.64 | P 5.4 | Q 4.61 | R 4.7 | S 4.44 | T 2.53 | W 2.53 | Y 2.29
E15: A 2.74 | C 3.39 | D 4.46 | F 2.42 | G 3.85 | H 3.53 | I 2.64 | K 3.2 | L 3.13 | M 3.32 | N 4.51 | P 3.71 | R 2.92 | S 4.05 | T 3.87 | V 3.65 | W 2.85 | Y 2.65
L16: A 4.34 | C 4.75 | D 5.11 | E 5.1 | F 4.15 | G 5.23 | H 4.84 | I 3.89 | K 4.88 | M 4.48 | N 4.87 | P 5.24 | Q 4.09 | R 4.04 | S 4.91 | T 5.08 | V 4.86 | W 3.93 | Y 4.13
Q17: A 4.22 | C 4.01 | D 3.55 | E 3.12 | F 3.98 | G 5.2 | H 4.34 | I 4.25 | K 4.88 | L 4.54 | M 4.57 | N 5.34 | P 4.91 | R 4.71 | S 4.75 | T 4.78 | V 4.51 | W 2.31 | Y 3.26
E18: A 3.84 | C 3.17 | D 4.61 | F 2.13 | G 4.68 | H 3.37 | I 1.74 | K 4.41 | L 2.63 | M 2.89 | N 3.94 | P 4.72 | Q 3.91 | R 2.74 | S 4.7 | T 4.47 | V 3.84 | W 2.4
